Measured values reported in article PMC10531723.

Legend:
[1] = molecular target: IAPP-CFP (human IAPP fused in frame with cyan fluorescent protein) (human); experiment: FRET or BRET; acceptor photobleaching FRET (AB FRET) by confocal microscopy (Leica TCS SP5) of yeast cells co-expressing a CFP fusion (donor) and a YFP fusion (acceptor); acceptor bleached at 514 nm, 100% intensity; cells washed, air-dried on polylysine slides and mounted in …; three independent transformants, at least 100 cells each
[2] = molecular target: Aβ42-CFP (human Aβ(1-42) fused to CFP) (human) (UniProt P05067); experiment: as above

Chain of IAPP-CFP (human IAPP fused in frame with cyan fluorescent protein) (human) (P10997 8-37): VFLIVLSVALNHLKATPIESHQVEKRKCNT

In the case of “IAPP-YFP (human IAPP fused in frame with yellow fluorescent protein) (domain or fragment)”, the FRET efficiency [1] was 31% and the FRET efficiency [2] was 20%.
